± gives the uncertainty stated by the source.

The series can be described thus: amyloid nucleation score (Sup35N fusion, yeast selection) (log enrichment); library NNK3; higher = more nucleation; inactive = no reads after selection. The gist of the method: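 Sup35N fusions to peptides of 20 random codons were expressed in psi-negative yeast, induced 24 hours with 100 μM copper sulfate, and grown 7 days at 30°C on medium lacking adenine and uracil. Input and output plasmid inserts were sequenced by Illumina. The nucleation score is the DiMSum log enrichment of output over input reads, centred on the mode score of non-aggregating sequences. Sequences with under 100 input reads were excluded.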
In the case of TLSGLVWWCVVFAMAT, the amyloid nucleation score entry was “inactive”. The result for RGCCKRPDGSKLVFIQMLIS reads “inactive”. Regarding WCKVRYSTNMVTSTSATLVA, the amyloid nucleation score result was “inactive”.

Consider RLPCPCNSVACVRTWISRCS, for which the amyloid nucleation score entry is “inactive”. The result for LKWAV reads “inactive”; that for EHSNNFTHNYVFWIGIGLAC, “inactive”. Then YPCLSIGFSCSVLRMNVYLW, with 0.368 ± 0.21; and WLGWPD, with “inactive”. Then FGDAYM, with “inactive”; and NFTRPLSWNYLR, with “inactive”; and LLAGQAIEIDVCAQGLKLKF, with -0.968 ± 1.8. Regarding NSWIMYRGGKDDDFVVPWAA, the amyloid nucleation score result is “inactive”. Then SCLHHFMEDSEPMNMGRVVK, with “inactive”; and VYRGLQWECLDGIVAFRRER, with “inactive”. With WAVYVGVL, the amyloid nucleation score entry is “inactive”. In the case of FFWKILALPSE, the amyloid nucleation score entry was “inactive”. Then STPWHSRAISVALDRGDRWM, with “inactive”; and YFLICIQVHKSMRNCPFYVS, with “inactive”. Then SRMLVSKLWKNMGLVSSAYL, with “inactive”. Then CFASTRSGVILNYTMVVVDF, with 1.78 ± 0.098.

As to CGTSHVMFWHVPRGVLKRMY, the amyloid nucleation score result is “inactive”.

As for QDALVSCWKFGAVSDQCDYW, the amyloid nucleation score result was “inactive”. The result for RFLDRTLIGYVCGKRRSPSS reads “inactive”. Then YCMWLPFMVNFH, with 2.58 ± 0.057. Then VNEFNGDGGSQLRQKQNPLF, with “inactive”; and HKDLRYGWSSS, with “inactive”; and FIVVPVGVKHDVS, with “inactive”. Turning to AVIDRNYVRTALAVMIASGH, the amyloid nucleation score result is “inactive”.

With EINMKSLV, the amyloid nucleation score entry is “inactive”. Then YITKLTGWTIE, with “inactive”. Then VTRCCPMWD, with -0.702 ± 2.5; and PGVDERT, with “inactive”. Then EFCVYMSNGGKNLRTRTWAQ, with 0.54 ± 0.31.

As to RYLILMDCFR, the amyloid nucleation score was determined as 0.291 ± 0.23. Then VITIAIELLGVLFVCIGTIV, with “inactive”. Then SQFTFNCTIFNGL, with 2.65 ± 0.064. The result for MGADGSLRALKRARS reads “inactive”. On to LGRKNGGAVNVRRPHFDWDG, for which the amyloid nucleation score entry was “inactive”. The result for AGTTEWRG reads “inactive”. Then SDYLFSQRGFVGSASCVLVM, with “inactive”. Then IISMPLGACMKAARMSF, with “inactive”.

For the substance MIGFYLILVGSHIRMYTGS, the amyloid nucleation score entry was “inactive”. The result for LRQQRHACAIMEVSG reads “inactive”; that for LLTIKN, “inactive”; that for FAGCWTVTSMGFCNRSGMKL, “inactive”.

On to SNNLKLAPGSWVPYSDRIHR, for which the amyloid nucleation score result was “inactive”. Consider SRVKDYCSFGLDFKCVCVFL, for which the amyloid nucleation score came to 2.06 ± 0.094.

Regarding GLRTFIG, the amyloid nucleation score entry is “inactive”. The result for LFSMSVSASHHWLERSFLTR reads “inactive”. The result for RWCDA reads -0.041 ± 0.31. As to GSKCWPDLQMLIFEVVHHRA, the amyloid nucleation score result is “inactive”. Then CTSQVDT, with “inactive”; and TRISTG, with “inactive”; and TSILMPASDVLKMQVVPWLS, with 0.904 ± 0.16. As to KRSFGRVIRDIDEYRMVRVV, the amyloid nucleation score entry was “inactive”.

Consider YSLEGSRSTVWRGVCCKLAF, for which the amyloid nucleation score was 0.092 ± 0.24. Then SRPAYSRRFMLTGDITVIKL, with 1.66 ± 0.071.

Consider FLSIRFV, for which the amyloid nucleation score entry was “inactive”. Then YHDFRMLFLWVVWSIVSIRS, with “inactive”.

For the substance GYVPHVFFRILRLVRENMLE, the amyloid nucleation score entry is “inactive”. Then ANLSRSSTLLSGVWSEV, with “inactive”; and CDEGSGWILFIRHLLLYWRG, with “inactive”. Then ARMLRYRHIAS, with “inactive”; and NLSVGRALTWHPSPWDQQIW, with “inactive”. The result for VSMSMRYQDASGVTSCFTSL reads “inactive”. Consider DKGFINCVSGSGDHVTCGGS, for which the amyloid nucleation score entry is “inactive”. With QDEPTMNVQ, the amyloid nucleation score entry was “inactive”.

As to NRALNW, the amyloid nucleation score result is “inactive”. The result for LLIMKGCAC reads “inactive”; that for NDGLAQSNIEIKDYRCRQNY, “inactive”. The result for CSGHYLFILLGFDTYNGEVF reads “inactive”. IIRCKMM: the amyloid nucleation score was -0.538 ± 0.57.

DRRLPIKPHVFVYSCNSICM returned an amyloid nucleation score of 0.921 ± 0.17. The result for ERNNKCDNTVLMKREELQG reads “inactive”. The result for YCKIKLIQGNRFNEYISYCD reads 2.56 ± 0.054; that for AEALCQFIYCFAASKLTGVC, “inactive”; that for FTLNVIF, 1.9 ± 0.069. The result for DYNSCCSEREVGKKEYTKNN reads “inactive”; that for RSRKVNWCSLFVVVSHVGWK, “inactive”; that for KQYLDLVAFIADGYRVSGDE, “inactive”. On to FEYNRQYTRLSSVRVRIRGS, for which the amyloid nucleation score entry was “inactive”. The result for VWYDRSEGLARAHNLYSGSE reads “inactive”; that for NCYNQYRSSWRLTCCLF, 3.34 ± 0.064.

Regarding RFGGVLVVFGEWNDVVREAV, the amyloid nucleation score result is “inactive”.

As for VMHNVM, the amyloid nucleation score entry is “inactive”. The result for EVQEKAEHHVLVGRVANPRF reads “inactive”. The result for NCDCSIAEPESILRFESPRE reads “inactive”; that for PTAHYWSVRSRSIDPPACQW, “inactive”; that for FGAVVDYNFSN, -0.695 ± 0.96. Then YRLLEQLTLSCWANRVLRLG, with -0.077 ± 0.61. For the substance INSRKSHGLSEPSHYQT, the amyloid nucleation score entry is “inactive”. The result for SMYVYPFELVSVDGRLVRTA reads “inactive”. The result for RYYDLVSLVQARDEVCTIHD reads “inactive”. Substance MFFVRNFCQYVSRRC displayed an amyloid nucleation score of 1.83 ± 0.088. Consider FFVKEFLVLDICGMTLPFDI, for which the amyloid nucleation score entry was “inactive”. The result for TDRRKK reads “inactive”. As for YERLLRDKALAPIDPI, the amyloid nucleation score entry was “inactive”.

In the case of YYGRNEVLYQSDNVRYSSSG, the amyloid nucleation score result is “inactive”. Then SLGSVVTSFASEMWTADGTR, with “inactive”. Take EGGDHCMNGHCVCRVGWLWA: the amyloid nucleation score result was “inactive”. As to FKNLGNTFGLTKRVCV, the amyloid nucleation score entry is “inactive”. In the case of YNYGKGRWHALLDISKVEVK, the amyloid nucleation score entry is “inactive”. Take GRDEQNHRFELVL: the amyloid nucleation score entry was “inactive”.

LWTVNRECM: the amyloid nucleation score result is “inactive”. The result for ISDHTLAGIIFC reads “inactive”.

Consider FEIRLFISGQDQAHGCCPWY, for which the amyloid nucleation score result is “inactive”. Then NIRWMFNLYACRLLRLVHF, with 0.44 ± 0.23. Then SSYLNSVNSCLNDNVSHCCS, with -0.343 ± 0.68; and LGICGVRRSLMKRR, with “inactive”; and SENMTGFLNRTSIISPWTYC, with “inactive”. Then VDVYLDYDIAMQPGVYALWR, with “inactive”; and LFNGFVDTMESIVSFDNTSY, with “inactive”. Turning to TGVWLRACSYEGEFGEDRKL, the amyloid nucleation score result is “inactive”. Then MVKCQWGFRL, with 1.33 ± 0.12; and KIYDVFSRFKYRMQSVYKQA, with “inactive”. Then SELTEVTSITDWF, with “inactive”. Then SHLDGYICYCPLLKRWIDYR, with -0.035 ± 0.59; and TDHCMVGGMYLEPVTIFFEG, with “inactive”; and NRRWILRRLLPSVNLSE, with “inactive”. In turn, NNIFWMRFMFDPWRR returned an amyloid nucleation score of 1.04 ± 0.21. The result for YFSSSWGMLKCGFAVFDHLT reads “inactive”; that for VYISESVQRMYSLCTFSSLD, 1.18 ± 0.085; that for GFKVVYKIWLPASRSACDPW, 1.31 ± 0.13. The result for KDLDGVLFGNANWKIICEL reads “inactive”; that for GNMKQWSIPPHIWTGQPPLM, “inactive”. Then VEPRWNRLVGNHVCSFDGNV, with “inactive”; and WMVVTMPSLKCGSYASVHGA, with “inactive”. As for LYYRGLRQRLTPKLGRFRLC, the amyloid nucleation score entry was “inactive”. Then ALWLPITVDWMLESGCGGCY, with “inactive”. Then MRTMISYMVRVVRTHTCFLD, with “inactive”; and ALPREPESVLG, with “inactive”. The result for VQAYLCEYR reads “inactive”.
